A short description of data set [1]: Solubility of Bpa-mutated peptides in the competition assay. The following applies: FIG. 11, Bpa scan; inhibition under determined. Type of data set: physicochemical.
The target in data set [2] is T1, BACE (Homo sapiens, UniProt P56817). Nature of the data set: Phage ELISA of phage-displayed peptides on immobilised BACE. Type of data set: binding. The arrangement: The cDNA for the catalytic domain of human BACE (residues 1-460) was PCR-amplified; human IgG1 heavy chain (C, cleaved yes); thrombin cleavage site (C); made in house; host or cells: CHO DG44 cells (stably transfected, secreted). The settings on record: clones from solid phase panning at pH 7.0. On the procedure: Two highly selected and homologous 12 mer phage peptides bound BACE specifically and reproducibly in phage-ELISA tests. Bristol-Myers Squibb fUSE5-based C4C, C6C, 5- and 15 mer libraries, and M13-based C7C libraries, and 7- and 12 mer libraries obtained from New England Biolabs, Beverly, Mass. were panned for three cycles against BACE (produced as described herein in Example 3). BACE was immobilized by coating at 0.5 μg/well in 4 wells of Dynex Immulon 4HBX plates overnight at 4° C. in 0.1M NaHCO3 buffer, pH 9.0. Panning was by standard procedures at room temperature that involved blocking wells with 2% BSA in PBS and elution with 0.1M HCL, pH 2.2. The vector NTI alignment tool and visual inspection of sequences were employed to analyze the selected peptides.
After sequencing approximately 20-50 clones from each library after three cycles of selection, we prepared essentially all possible candidate clones (39 clones in total) for phage-ELISA to obtain direct evidence for affinity to BACE. […] We therefore sequenced additional 12 mer clones to try to find additional candidate clones. […] This […] (SEQ ID NO:20) peptide is homologous to […] (SEQ ID NO:19) and consistent with the specific binding of both those peptides to BACE. The […] (SEQ ID NO:20) peptide and […] (SEQ ID NO:19) peptides were the two most efficiently recovered clones with 13 and 9 copies, respectively. […]
Target sequence in this assay (P56817 46-460 limits assumed): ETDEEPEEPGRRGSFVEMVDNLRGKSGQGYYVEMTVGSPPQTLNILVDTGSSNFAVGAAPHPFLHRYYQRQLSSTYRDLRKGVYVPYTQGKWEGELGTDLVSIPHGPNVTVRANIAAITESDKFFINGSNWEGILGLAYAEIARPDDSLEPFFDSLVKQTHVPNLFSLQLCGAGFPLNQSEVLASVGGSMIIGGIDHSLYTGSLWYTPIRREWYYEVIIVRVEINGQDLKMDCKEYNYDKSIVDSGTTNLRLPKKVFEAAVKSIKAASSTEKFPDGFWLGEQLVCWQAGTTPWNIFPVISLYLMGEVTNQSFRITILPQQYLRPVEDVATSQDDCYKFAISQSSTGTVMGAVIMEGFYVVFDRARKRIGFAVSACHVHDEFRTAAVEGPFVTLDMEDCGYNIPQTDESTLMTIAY

Data set [3] addresses T1, BACE. Described as above. Type of data set: binding. The arrangement: The cDNA for the catalytic domain of human BACE (residues 1-460) was PCR-amplified; human IgG1 heavy chain (C, cleaved yes); thrombin cleavage site (C); made in house; host or cells: CHO DG44 cells (stably transfected, secreted). The following applies: peptides from solution phase panning; tested at pH 5.0.
Target sequence in this assay (P56817 46-460 limits assumed): as above

The target of data set [4] is T2, catalytic domain of human BACE expressed in a CHO cell line (Homo sapiens, UniProt P56817).
T2 construct: The cDNA for the catalytic domain of human BACE (residues 1-460) was PCR-amplified; human IgG1 heavy chain (C, cleaved yes); thrombin cleavage site (C); made in house; host or cells: CHO DG44 cells (stably transfected, secreted)
Nature of the data set: Fluorescently labeled EBP binding to BACE, fluorescence anisotropy. The following applies: for Kd: pH 4.5 (50 mM acetate), 25° C., 1:1 binding model, read-out: binding constant (Kd) of labeled EBP. As for the experimental part:
An assay to evaluate the binding of BACE to EBPs labeled with a fluorescent molecule (for example, but not limited to Alexa488) was developed. This assay uses the catalytic domain of human BACE expressed in a CHO cell line (according to Example 3) and labeled EBPs such as Molecule X shown in FIG. 4. The change in fluorescent anisotropy of the EBP peptide upon binding to BACE is monitored.
Peptides were dissolved in 100% DMSO (dimethyl sulfoxide) at 10 mM concentration, and then diluted 10-fold into deionized water. The concentration of the labeled peptides was determined by their absorbance at 495 nm (ε=71000 cm^−1M^−1). The concentration of selected unlabeled peptides was determined by their Tyr absorbance at 276 nm (ε=1390 cm^−1M^−1 per Tyr residue).
The binding was carried out at pH 7.1 (PBS buffer) and pH 4.5 (50 mM acetate buffer) in the presence of 1% DMSO. Fluorescence anisotropy was measured at 25° C. in an AVIV fluorometer. The excitation and emission wavelengths were set to 495 and 519 nm, respectively. The excitation and emission slit width were 4 and 10 nm, respectively. A concentrated BACE stock was used to titrate a 300 μl solution of 10 nM labeled EBP. The final BACE concentration ranges from 10 to 5000 nM. After the addition of BACE, the solution was mixed for 10 times with a pipettor. The fluorescence anisotropy was averaged over a 5 minute period.
The change in anisotropy was plotted against the BACE concentration (see, for example, FIG. 5). The Kd of the labeled EBP as well as the initial (r0) and final anisotropy (rb) of the labeled EBP were calculated from curve fitting using the program Kaleidagraph. The equation used to fit the binding data is identical to equation 1 in Lai et al., (2000) Arch. Biochem. Biophys. 381:278-284.

Data set [5] addresses T3, catalytic domain of BACE purified from E. coli cells (Homo sapiens, UniProt P56817).
T3 construct: the catalytic domain of BACE purified from E. coli cells; made in house; host or cells: E. coli
Nature of the data set: Binding of labeled EBP to BACE purified from E. coli cells. The settings on record: compared with BACE purified from CHO cells. As for the experimental part:
Binding of Molecule Y1 to the catalytic domain of BACE purified from E. coli cells was carried out to determine the effect of glycosylation on the EBP binding.

Data set [6] has as its target T1, BACE. Kind of data set: BACE cleavage assay with MCA-[…](-dnp)-COOH substrate, HPLC analysis. Type of data set: biochemical. The settings on record: 0.1 nM BACE, 25 μM substrate peptide, 60 minutes at 25° C.; read-out: IC50, inhibition of proteolytic activity of BACE. As for the experimental part: Molecule Y3 was tested in a BACE cleavage assay using the peptide MCA-[…](-dnp)-COOH (SEQ ID NO:107) as a substrate. The assay was carried out essentially as described in Mallender et al., (2001) Mol. Pharmacol. 59:619-626 and in Marcinkeviciene et al., (2001) J. Biol. Chem. 276: 23790-23794. A concentration of 0.1 nM BACE was incubated with Molecule Y3 at various concentrations for 15 minutes before substrate peptide was added to a final concentration of 25 μM. The reaction was allowed to proceed for 60 minutes at 25° C. before it was stopped by boiling. The reaction mixture was separated on a C18 column using reverse phase HPLC (Waters, Milford, Mass.). The IC50 value was calculated using the Langmuir isotherm equation (Copeland, R. A., Enzymes: A Practical Introduction to Structure, Mechanism, and Data Analysis, (2nd ed), Wiley-VCH, New York, N.Y. (2000)).
Target sequence in this assay (P56817 46-457 limits assumed): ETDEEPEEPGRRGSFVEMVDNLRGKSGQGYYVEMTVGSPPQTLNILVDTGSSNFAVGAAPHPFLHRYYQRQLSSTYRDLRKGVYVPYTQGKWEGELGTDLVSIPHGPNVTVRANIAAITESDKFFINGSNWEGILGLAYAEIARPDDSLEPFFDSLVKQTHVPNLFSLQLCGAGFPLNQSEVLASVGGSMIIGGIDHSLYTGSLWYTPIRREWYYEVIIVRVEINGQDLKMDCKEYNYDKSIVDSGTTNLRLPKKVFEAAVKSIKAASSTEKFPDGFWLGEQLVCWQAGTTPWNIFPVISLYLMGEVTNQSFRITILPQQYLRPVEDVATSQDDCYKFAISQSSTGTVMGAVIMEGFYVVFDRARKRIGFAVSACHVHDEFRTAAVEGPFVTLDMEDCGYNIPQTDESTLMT

Where “and” joins values, the source holds several entries; their conditions need not be identical. Identical values can stand only once. Like-named read-outs stand apart in the source and are kept apart here. Square brackets hold non-standard residues; d marks the D form. Peptide text beside a SMILES is read from it. Bpa = N[C@@H](Cc1ccc(C(=O)c2ccccc2)cc1)C(=O)O; Alexa488 = Alexa Fluor 488 fluorescent label

T2 sequence (P56817 46-460 limits assumed): as the sequence (P56817 46-460 limits assumed) above
T3 sequence (P56817 46-457 limits assumed): as the sequence (P56817 46-457 limits assumed) above

For the compound `CC(=O)N[C@@H](Cc1ccc(O)cc1)C(=O)N1CCC[C@H]1C(=O)N[C@@H](Cc1ccc(O)cc1)C(=O)N[C@@H](Cc1ccccc1)C(=O)N[C@@H](Cc1ccc(C(=O)c2ccccc2)cc1)C(=O)N1CCC[C@H]1C(=O)N[C@@H](CC(C)C)C(N)=O` [I9B] (Ac-YPYF[Bpa]PL-NH2), the solubility result in data set [1] was “limited solubility”.

As to `CC[C@H](C)[C@H](NC(=O)[C@H](Cc1ccccc1)NC(=O)[C@H](Cc1ccc(O)cc1)NC(=O)[C@H](Cc1ccc(C(=O)c2ccccc2)cc1)NC(=O)[C@H](Cc1ccc(O)cc1)NC(C)=O)C(=O)N1CCC[C@H]1C(=O)N[C@@H](CC(C)C)C(N)=O` [P6B] (Ac-Y[Bpa]YFIPL-NH2), in data set [1], the solubility result is recorded as “limited solubility”.

For Ac-ALYPYFLPISAK-NH2 [BMS-561877], in data set [2], the “phage ELISA binding to BACE” value is reported as “specific binding to BACE”.

Consider ETWPRFIPYHALTQQTLKHQQHT, for which the “phage ELISA binding to BACE” value in data set [3] is “strong and specific binding”.

With “Molecule Y1: peptide YPYFIPL (BMS-593925) with C-terminal Alexa488 label, FIG. 4 (Ac-YPYFIPL-Alexa488; also: linker between peptide and Alexa488 not given here)”, the “enhancement of affinity in the presence of OM99-2” value in data set [4] (in the presence of 10 μM OM99-2) stood at 5 fold. Besides, the Kd in data set [4] (listed as Y1) is 58 nM and 57 nM. For the same compound, the “binding affinity for E. coli expressed (non-glycosylated) human BACE” value in data set [5] is reported as “the same as that of human BACE purified from CHO cells”.

As for “Molecule Y3: analog of Molecule Y1 with different length of linker between Alexa488 and the peptide (Ac-YPYFIPL-Alexa488; also: linker between peptide and Alexa488 not given here)”, the Kd in data set [4] worked out at 48 nM. The IC50 in data set [6] was determined as 731 nM.

Consider TAEYESRTARTAPPAPTQHWPFFIRST, for which the “phage ELISA binding to BACE” value in data set [3] is “strong and specific binding”.
